Series [1] deals with T1, Sis0811 (SisRN0811), full length (Saccharolobus islandicus, UniProt F0NH89).
T1 sequence (F0NH89 1-322): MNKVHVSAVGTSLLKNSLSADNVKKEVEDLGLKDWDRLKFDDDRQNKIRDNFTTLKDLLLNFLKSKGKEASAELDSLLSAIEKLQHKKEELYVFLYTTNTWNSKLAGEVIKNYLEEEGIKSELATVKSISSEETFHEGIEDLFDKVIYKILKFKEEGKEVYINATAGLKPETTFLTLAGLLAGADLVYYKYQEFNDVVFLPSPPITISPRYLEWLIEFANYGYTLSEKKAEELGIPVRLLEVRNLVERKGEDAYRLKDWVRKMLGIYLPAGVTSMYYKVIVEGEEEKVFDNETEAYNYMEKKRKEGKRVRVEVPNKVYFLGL
Put plainly: isothermal titration calorimetry, single-site model. The class given is binding.

The next series concerns the target T2, Sis0811Δ268 (Saccharolobus islandicus, UniProt F0NH89).
T2 sequence (F0NH89 1-268): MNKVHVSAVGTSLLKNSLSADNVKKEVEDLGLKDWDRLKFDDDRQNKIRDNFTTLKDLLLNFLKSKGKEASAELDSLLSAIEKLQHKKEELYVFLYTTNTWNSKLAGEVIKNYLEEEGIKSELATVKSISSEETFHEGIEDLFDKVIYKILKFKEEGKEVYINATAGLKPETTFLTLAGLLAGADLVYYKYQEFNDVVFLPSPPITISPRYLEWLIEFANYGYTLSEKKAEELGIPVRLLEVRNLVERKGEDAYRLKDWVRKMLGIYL
The description is as above. The class given is binding.

The series “SEC-MALS” deals with the molecule itself. Put plainly: SEC-MALS.
The series “crystal structure” concerns the molecule itself. Put plainly: crystal structure.

Substitutions are numbered along the chain they refer to. In names and notes the source's numbering stands.

Turning to `Nc1ncnc2c1ncn2[C@@H]1O[C@@H]2COP(=O)(O)O[C@H]3[C@@H](O)[C@H](n4cnc5c(N)ncnc54)O[C@@H]3COP(=O)(O)O[C@H]3[C@@H](O)[C@H](n4cnc5c(N)ncnc54)O[C@@H]3COP(=O)(O)O[C@H]3[C@@H](O)[C@H](n4cnc5c(N)ncnc54)O[C@@H]3COP(=O)(O)O[C@H]2[C@H]1O` [cA4], the Kd was 9.1 nM in series [1] and 5.9 nM on Sis0811Δ268.

B1: Sis0811 full length (standalone ring nuclease from Sulfolobus islandicus REY15A) (enzyme, UniProt F0NH89 1-322, looked up)
chain: T1 sequence (F0NH89 1-322)
For the molecule B1, in “SEC-MALS”, the “stoichiometry N” value is 2.

B2: Sis0811_(Δ268) (truncated Sis0811 lacking the C-terminal 54 residues) (domain or fragment, Sulfolobus islandicus REY15A, UniProt F0NH89 1-268, looked up)
chain: T2 sequence (F0NH89 1-268)
B2: in “SEC-MALS”, the “stoichiometry N” value was 2.

B3: Sis0811_(Δ268)(S12A) (domain or fragment, Sulfolobus islandicus REY15A, UniProt F0NH89 1-268, looked up)
chain: T2 sequence (F0NH89 1-268) with S12A
Take B3: the binding result in the series “crystal structure” is given as “binds”.

B4: Sis0811_(Δ268)(S12G/K169G) (domain or fragment, Sulfolobus islandicus REY15A, UniProt F0NH89 1-268, looked up)
chain: T2 sequence (F0NH89 1-268) with S12G, K169G
Take B4: the binding result in the series “crystal structure” is on record as “binds”.

The values are drawn from paper PMC8643638 (Nucleic Acids Research, 2021).
